Reference: US10745461B2, “Pulsed introduction of low-dose RANKL as a therapy for diet-induced atherosclerosis” (Saint Louis University, priority 2015, dated 2020)
“Also recorded” adds a separate entry of the source.

B1: IL-17A: recombinant murine IL-17A, pro-inflammatory cytokine (protein, UniProt Q62386 26-158, looked up)
Interleukin-17A: AAIIPQSSACPNTEAKDFLQNVKVNLKVFNSLGAKVSSRRPSDYLNRSTSPWTLHRNEDPDRYPSVIWEAQCRHQRCVNAEGKLDHHMNSVLIQQEILVLKREPESCPFTFRVEKMLVGVGCTCVASIVRQAA

Legend:
[1] = test system: FoxP3 induction in OT-I CD8 T-cells by osteoclasts; assay: TcREG (FoxP3) induction in OT-I CD8 T-cells co-cultured with bone marrow-derived osteoclasts; format: cell-based, mice; details: in culture, IL-17 10 ng/ml, increasing TNFα, DAPT 10 μM, Fc proteins added to T-cells prior to co-culture
Description: It was also determined that IL-17 and TNFα suppresses TcREG induction by osteoclasts. […] Another possibility is that loss of estrogen leads to increased production of the pro-inflammatory cytokines by T-cells that increase osteoclast activity. Without being limited to any method of operation, it is actually expected that in the presence of pro-inflammatory cytokines osteoclasts fail to induce TcREG. As estrogen depletion lead to greater number of osteoclasts because of a decreased Fas ligand expression, the loss of TcREG induction and increased osteoclast numbers would tip the balance towards increased osteoclast resorption and net bone loss. To test fir this possibility, OC-iTcREG induction was measured in the presence of IL-17 and TNFα. […] To understand the underlying mechanism of how TNFα affects osteoclasts' ability to induce TcREG, the signals provided by osteoclasts to induce FoxP3 in the CD8 T-cells were investigated along with if these signals were affected by […].
(§1) The most common and well-studied costimulatory signals on antigen-presenting cells are CD80 (B7.1) and CD86 (B7.2). As CD80/CD86 double knockout mice are commercially available, osteoclasts were generated from bone marrow precursors of these mice. The CD80/CD86 null osteoclasts (as well as wild-type controls) were then used to prime OT-I T-cells in the presence and absence of antigen. […] OT-I CD8 T-cells activated by CD80/CD86 null osteoclasts produced IL-6, IL-2 and IFN-γ to levels indistinguishable from wild-type mice (FIG. 4B). Having ruled out CD80/CD86 as the costimulatory molecules, an osteoclast microarray dataset was queried for other costimulatory molecules expressed by osteoclasts. Osteoclasts that express CD200 and c-Mer were found. The role of CD200 was chosen for testing based on the phenotype of CD200^−/− mice and the reported role for CD200 in regulating TcREG.
The most, well characterized regulator of FoxP3 in T-cells is TGFβ. It has been previously shown that neutralization or addition of TGFβ has no effect on the induction of TcREG. Therefore identification of other pathways that can regulate the FoxP3 promoter in T-cells was sought. A number of previous studies have identified that the Notch signaling contributes to FoxP3 induction. To test if Notch signaling is important for TcREG induction by osteoclasts, the γ-Secretase inhibitor DAPT was initially used. Ligation of the Notch receptor by its ligand leads to cleavage of Notch by γ-secretase. […] Next, we identified the Notch ligands expressed in osteoclasts using reverse-transcription followed by PCR. […] Of the four, the osteoclast-precursors (bone marrow cells treated with M-CSF but not RANKL) express all of the ligands except DLL4 (FIG. 5C). To assess the role of DLL4 in TcREG (soluble) DLL4-Fc was added to OT-I CD8 T-cells prior to co-culturing with osteoclasts. […] To assess the role of DLL4 in vivo the induction experiments as described in FIG. 1 were performed: GFP negative (polyclonal) CD8 T-cells were purified by cell sorting and transferred into OT-II Rag^−/− mice. Two hours prior to RANKL treatment, DLL4-Fc or a control IgG1-Fc, were injected intravenously into the recipient mice, As described for FIG. 1, RANKL (0.125 mg/kg) was then administered on two consecutive days.
DLL-4 expression is repressed in the presence of […] and IL-17 but can be de-repressed by RANKL. […]

DLL4 = DLL4 expression in mature osteoclasts by qRT-PCR; format: cell-based, mouse; details: overnight in 20 ng/ml TNFα or 10 ng/ml IL-17
Text: DLL-4 expression is repressed in the presence of […] and IL-17 but can be de-repressed by RANKL. Having identified that DLL4 was required for osteoclasts to induce Foxp3 expression in CD8+ T cells we next tested if DLL-4 expression was affected by pro-inflammatory cytokines. […] As RANKL induced DLL4 in osteoclast precursors, it was hypothesized that adding additional RANKL may overcome the repression of DLL4 by TNFα. To assess the reversibility of DLL4 expression, mature osteoclasts were cultured overnight in 50 ng/ml RANKL and 20 ng/ml […], and then additional RANKL was added to the culture media (while maintaining 20 ng/ml TNFα) as shown in FIG. 5E. Indeed, addition of RANKL overcomes (within 24 hours) the repression of DLL4 by TNFα as assessed by qRT-PCR. […] The experiment was performed as above, but in this case FoxP3 induction in OT-I CD8 T-cells in the presence of OVA and either 10 ng/ml or 20 ng/ml TNFα was measured.
(§2) Osteoclasts seeded on day 4 at 1.5×10^6 cells/ml were used in all experiments. RNA was isolated at time point described in Figure legends. 10 to 50 ng of RNA was used for first-strand cDNA synthesis in 50 μL reaction per kit instructions (Superscript III cDNA synthesis system; Invitrogen). In all cases 10% of the cDNA product was used in a 50 μL PCR reaction that contained 10 μM each forward and reverse primers. For quantitative PCR (qPCR) SYBR green system (Invitrogen) was used. Otherwise, cDNA was amplified (25 cycles) and the products resolved on 1.2% agarose gel and visualized by ethidium bromide staining.

CD200 = CD200 expression in mature osteoclasts by qRT-PCR; format: cell-based, mouse; details: TNFα 20 ng/ml or IL-17A 10 ng/ml
Text: as §1, §2

Molecule	effect of added agent on TcREG/FoxP3 induction by osteoclasts [1]	DLL4 transcripts in mature osteoclasts after cytokine (DLL4)	CD200 mRNA expression in mature osteoclasts (CD200)	effect of added agent on TcREG/FoxP3 induction by osteoclasts ([1]; listed as IL-17)	DLL4 transcripts in mature osteoclasts after cytokine (DLL4; listed as IL-17)	CD200 mRNA expression in mature osteoclasts (CD200; listed as IL-17)
C[C@H](NC(=O)Cc1cc(F)cc(F)c1)C(=O)N[C@H](C(=O)OC(C)(C)C)c1ccccc1 [DAPT, reference compound]	completely inhibited TcREG induction; also recorded: completely abrogated FoxP3 induction	–	–	–	–	–
TNFα [reference compound]	reduced TcREG induction in a dose dependent manner; also recorded: greatly impaired	DLL4 expression was repressed; also recorded: significantly reduced	had no effect on CD200 expression; also recorded: not altered	–	–	–
B1	significantly reduced	DLL4 expression was repressed	had no effect on CD200 expression	greatly impaired	significantly reduced	not altered
